Source: paper PMC5171940

Target: Aβ oligomers: soluble prefibrillar aggregates of biotinylated Aβ(1–42)
Assay: SPR; BIAcore T200, single-cycle kinetics; biotinylated Aβ (11–28 or oligomeric 1–42) captured on streptavidin-coupled CM5 chip (100–200 RU); antibody as analyte 0.8–500 nM in HBS-P pH 7.4, 0.15 M NaCl; one-to-one Langmuir model

- Kd: 0.4 to 0.6 nM
Substance: Crenezumab, fully humanized anti-Aβ monoclonal IgG4 (antibody)
